Results: US20240117049A1 (Hoffmann-La Roche, published 2024)
Where two headings read alike, the source gives them in different places.

Legend:
[1] = molecular target: T1, biotinylated recombinant human FAP (human, UniProt Q12884 27-760, biotinylated); test: SPR (Biacore), biotinylated recombinant FAP
T1 construct: the Biacore paragraphs only say biotinylated (recombinant) human FAP; also called biotinylated human FAP; recombinant huFAP

[2] = molecular target: T1, biotinylated recombinant human FAP; test: SPR (Biacore), biotinylated huFAP on CAP chip, Fab as analyte, 1:1 fit
[3] = molecular target: biotinylated recombinant cynomolgus FAP (cynomolgus, UniProt Q12884 27-760 (human entry), limits assumed, biotinylated); test: SPR (Biacore), biotinylated recombinant FAP
[4] = molecular target: T2, human Fibroblast Activation Protein (FAP) expressed on cells (human, UniProt Q12884 1-760); test: flow cytometry, human FAP-transfected HEK cells
T2 construct: cell surface FAP on transfected HEK cells or NIH/3T3-huFAP clone 19 fibroblasts; also called huFAP; human FAP-transfected HEK cells

[5] = molecular target: T3, cynomolgus FAP expressed on cells (cynomolgus); test: flow cytometry, FAP-transfected HEK cells
T3 construct: whole, on cells

[6] = molecular target: T2, human Fibroblast Activation Protein …; test: flow cytometry, FAP-transfected HEK cells
[7] = molecular target: T4, human DPP-IV expressed on transfected HEK cells (human, UniProt P27487 1-766); test: flow cytometry, human DPPIV-transfected HEK cells
T4 construct: whole, on cells; also called dipeptidyl peptidase IV

human OX40 on cells [8] = molecular target: T5, human OX40 on cells (human, UniProt P43489 29-277); test: cell-based or functional assay
T5 sequence: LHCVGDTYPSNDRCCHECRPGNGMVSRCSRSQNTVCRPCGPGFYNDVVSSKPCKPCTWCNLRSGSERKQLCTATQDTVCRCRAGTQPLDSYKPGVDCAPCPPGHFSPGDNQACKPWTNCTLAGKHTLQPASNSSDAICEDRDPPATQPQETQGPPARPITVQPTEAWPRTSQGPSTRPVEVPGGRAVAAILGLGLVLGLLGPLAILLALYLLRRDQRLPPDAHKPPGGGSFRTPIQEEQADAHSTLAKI

human OX40 on cells [9] = molecular target: T5, human OX40 on cells; test: cell-based or functional assay; remark: listed apart in the source
[10] = molecular target: T6, FcRn (biotinylated, coupled to streptavidin-sepharose); test: FcRn affinity chromatography, pH gradient, retention compared to standards
T6 construct: also called neonatal Fc receptor

human OX40 on cells [11] = molecular target: T5, human OX40 on cells; test: flow cytometry, activated human CD4+ T cells
[12] = molecular target: T1, biotinylated recombinant human FAP; test: SPR, stressed against unstressed sample, normalised to anti-hu IgG capture
biotinylated human OX40 = molecular target: T7, biotinylated human OX40 (human, UniProt P43489 29-214, limits assumed, biotinylated); test: as above
T7 sequence: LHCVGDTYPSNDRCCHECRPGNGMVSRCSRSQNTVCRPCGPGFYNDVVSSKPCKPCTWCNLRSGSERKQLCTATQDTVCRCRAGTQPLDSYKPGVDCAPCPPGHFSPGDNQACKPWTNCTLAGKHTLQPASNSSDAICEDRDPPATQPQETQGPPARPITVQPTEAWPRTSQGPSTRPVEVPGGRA

[13] = molecular target: T2, human Fibroblast Activation Protein …; test: flow cytometry, NIH/3T3-huFAP clone 19 cells
human OX40 on cells [14] = molecular target: T5, human OX40 on cells; test: flow cytometry, activated human PBMC gated on CD8+ T cells (OX40 positive), FITC anti-human Fcγ secondary, MFI baseline corrected
human OX40 on cells [15] = molecular target: T5, human OX40 on cells; test: cell-based or functional assay; remark: listed apart in the source
human OX40 on cells [16] = molecular target: T5, human OX40 on cells; test: cell-based or functional assay; remark: listed apart in the source
human OX40 on cells [17] = molecular target: T5, human OX40 on cells; test: cell-based or functional assay; remark: listed apart in the source
human OX40 on cells [18] = molecular target: T5, human OX40 on cells; test: cell-based or functional assay; remark: listed apart in the source

T6 sequence (P55899 24-297, chain 1 of 2): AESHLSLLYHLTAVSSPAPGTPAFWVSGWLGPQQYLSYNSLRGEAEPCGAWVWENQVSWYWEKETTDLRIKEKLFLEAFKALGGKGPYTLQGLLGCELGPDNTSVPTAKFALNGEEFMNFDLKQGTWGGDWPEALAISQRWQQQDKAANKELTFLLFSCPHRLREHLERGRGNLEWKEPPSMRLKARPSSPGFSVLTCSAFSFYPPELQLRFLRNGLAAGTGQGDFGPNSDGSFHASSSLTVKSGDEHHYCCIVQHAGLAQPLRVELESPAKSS
T6 sequence (P61769 21-119, chain 2 of 2, further chain): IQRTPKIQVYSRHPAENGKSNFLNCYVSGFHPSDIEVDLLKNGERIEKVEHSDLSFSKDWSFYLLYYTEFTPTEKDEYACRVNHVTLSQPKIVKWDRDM
T4 sequence (P27487 whole entry): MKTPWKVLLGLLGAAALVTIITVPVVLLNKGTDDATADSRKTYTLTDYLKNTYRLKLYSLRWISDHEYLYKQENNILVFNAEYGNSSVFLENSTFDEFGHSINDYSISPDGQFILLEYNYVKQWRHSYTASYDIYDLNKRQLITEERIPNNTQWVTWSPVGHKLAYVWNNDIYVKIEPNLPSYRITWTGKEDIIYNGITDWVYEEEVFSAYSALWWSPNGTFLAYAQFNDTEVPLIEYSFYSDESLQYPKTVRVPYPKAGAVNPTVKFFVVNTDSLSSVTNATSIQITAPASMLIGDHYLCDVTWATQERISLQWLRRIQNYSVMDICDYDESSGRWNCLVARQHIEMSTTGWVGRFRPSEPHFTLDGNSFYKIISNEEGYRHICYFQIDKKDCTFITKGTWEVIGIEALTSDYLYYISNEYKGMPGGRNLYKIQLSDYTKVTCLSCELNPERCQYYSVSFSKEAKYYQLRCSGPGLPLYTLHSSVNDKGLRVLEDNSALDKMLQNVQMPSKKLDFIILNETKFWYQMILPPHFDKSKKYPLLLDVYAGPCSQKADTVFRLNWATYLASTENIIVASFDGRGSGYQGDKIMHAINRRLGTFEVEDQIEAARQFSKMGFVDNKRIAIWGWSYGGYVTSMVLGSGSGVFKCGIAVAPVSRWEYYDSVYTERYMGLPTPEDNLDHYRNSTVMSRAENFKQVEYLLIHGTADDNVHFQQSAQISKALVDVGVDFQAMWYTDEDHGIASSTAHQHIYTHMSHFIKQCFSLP

B1: P1AD9438_Fab, anti-FAP clone 212 Fab (Fab, V domains shown)
VH: EVLLQQSGPELVKPGASVKIACKASGYTLTDYNMDWVRQSHGKSLEWIGDIYPNTGGTIYNQKFKGKATLTIDKSSSTAYMDLRSLTSEDTAVYYCTRFRGIHYAMDYWGQGTSVTVSS
VL: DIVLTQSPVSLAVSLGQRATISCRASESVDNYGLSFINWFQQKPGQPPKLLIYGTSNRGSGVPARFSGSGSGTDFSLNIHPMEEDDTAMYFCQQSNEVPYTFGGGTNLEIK
notes: Fab; also called 212 free Fab
Kd [1]: 0.12 nM | Kd [2]: < 0.01 nM | koff [2]: < 1e-06 s⁻¹ | kon [2]: 1.06e+06 M⁻¹ s⁻¹

B2: P1AD9438, anti-FAP clone 212 as huIgG1 P329G LALA antibody (antibody, V domains shown)
VH: B1 VH
VL: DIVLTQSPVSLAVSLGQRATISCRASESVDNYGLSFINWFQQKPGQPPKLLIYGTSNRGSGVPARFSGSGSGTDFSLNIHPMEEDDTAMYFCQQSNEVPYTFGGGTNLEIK
notes: human IgG1 with P329G, L234A, L235A; also called 212 IgG
Kd [3]: 0.14 nM | EC50 [4]: 0.118 µg/mL | EC50 [5]: 0.3 µg/mL | EC50 [6]: 0.12 µg/mL

B3: anti-human FAP clone 212, hybridoma-derived murine antibody (antibody, V domains shown)
VH: B1 VH
VL: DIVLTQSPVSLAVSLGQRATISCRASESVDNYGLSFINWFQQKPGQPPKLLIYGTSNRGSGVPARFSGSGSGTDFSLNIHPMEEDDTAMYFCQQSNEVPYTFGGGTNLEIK
notes: mu IgG1
binding result [7]: no binding (tested: 10 µg/ml)

B4: anti-FAP clone 212, C-terminal Fab fusion construct (Fc fusion)
chain 1: B1 VH
chain 2: not shown
Kd [3]: 0.64 nM | Kd [1]: 0.62 nM | EC50 [6]: 2.8 µg/mL

B5: P1AE8874 OX40(CLC563) x FAP (1G1a) (3 + 1) C-terminal crossfab fusion (bispecific antibody, human IgG1, kappa, L234A L235A)
heavy 1: not shown
heavy 2: not shown
light 1: not shown
light 2: EIVLTQSPATLSLSPGERATLSCRASESVDNYGLSFINWFQQKPGQAPRLLIYGTSNRGSGIPARFSGSGSGTDFTLTISSLEPEDFAVYFCQQSNEVPYTFGGGTKVEIKSSASTKGPSVFPLAPSSKSTSGGTAALGCLVKDYFPEPVTVSWNSGALTSGVHTFPAVLQSSGLYSLSSVVTVPSSSLGTQTYICNVNHKPSNTKVDKKVEPKSC
notes: also called CLC-563 3+1
EC50 of NFκB activation, HeLa_hOx40_NFkB_Luc1, w/ hu FAP+ fibroblasts (human OX40 on cells [8]): 0.24 nM | EC50 of NFκB activation, HeLa_hOx40_NFkB_Luc1, w/o crosslinking (human OX40 on cells [8]): 0.79 nM | AUC of CD25 upregulation compared to reference compound [%] (human OX40 on cells [9]): 100% | EC50 of CD25 upregulation on CD4+ T cells, suboptimal TCR stimulation of human PBMC with FAP+ fibroblasts (human OX40 on cells [9]): 0.04 nM | FcRn affinity (relative retention) [10]: -0.14 | EC50 (human OX40 on cells [11]): 3.62 nM | binding activity [%] after 2 weeks at pH 6.0/40°C [12]: > 90% | binding activity [%] after 2 weeks at pH 7.4/37°C [12]: > 90% | binding activity [%] after 2 weeks at pH 6.0/40°C (biotinylated human OX40): > 90% | binding activity [%] after 2 weeks at pH 7.4/37°C (biotinylated human OX40): > 90% | EC50 [13]: 2.52 nM | EC50 (read off the curve) (human OX40 on cells [14]): ~3 nM

B6: P1AE8871 OX40(CLC563) x FAP (1G1a) (2 + 1) C-terminal crossfab fusion (bispecific antibody, human IgG1, kappa, L234A L235A)
heavy 1: not shown
heavy 2: not shown
light 1: not shown
light 2: B5 light 2
notes: also called CLC-563 2+1
EC50 of NFκB activation, HeLa_hOx40_NFkB_Luc1, w/ hu FAP+ fibroblasts (human OX40 on cells [8]): 0.21 nM | AUC of CD25 upregulation compared to reference compound [%] (human OX40 on cells [9]): 99% | EC50 of CD25 upregulation on CD4+ T cells, suboptimal TCR stimulation of human PBMC with FAP+ fibroblasts (human OX40 on cells [9]): 0.06 nM | EC50 (human OX40 on cells [11]): 3.19 nM | EC50 [13]: 2.51 nM | EC50 (read off the curve) (human OX40 on cells [14]): ~2 nM

B7: anti-FAP antibody 4B9 (antibody, V domains shown)
VH: EVQLLESGGGLVQPGGSLRLSCAASGFTFSSYAMSWVRQAPGKGLEWVSAIIGSGASTYYADSVKGRFTISRDNSKNTLYLQMNSLRAEDTAVYYCAKGWFGGFNYWGQGTLVTVSS
VL: EIVLTQSPGTLSLSPGERATLSCRASQSVTSSYLAWYQQKPGQAPRLLINVGSRRATGIPDRFSGSGSGTDFTLTISRLEPEDFAVYYCQQGIMLPPTFGQGTKVEIK
notes: made as in WO 2012/020006; also called FAP clone 4B9; AlexaFluor647-labeled anti FAP antibody 4B9
EC50 [4]: 0.089 µg/mL

B8: P1AF6454 OX40(CLC563) x FAP (1G1a_EPKSCD) (3 + 1) C-terminal crossfab fusion (bispecific antibody, human IgG1, kappa, L234A L235A)
heavy 1: not shown
heavy 2: not shown
light 1: not shown
light 2: EIVLTQSPATLSLSPGERATLSCRASESVDNYGLSFINWFQQKPGQAPRLLIYGTSNRGSGIPARFSGSGSGTDFTLTISSLEPEDFAVYFCQQSNEVPYTFGGGTKVEIKSSASTKGPSVFPLAPSSKSTSGGTAALGCLVKDYFPEPVTVSWNSGALTSGVHTFPAVLQSSGLYSLSSVVTVPSSSLGTQTYICNVNHKPSNTKVDKKVEPKSCD
notes: also called CLC-563, D-variant 3+1; 3+1 CLC563/H212-D
FcRn affinity (relative retention) [10]: -0.1 | EC50 of NFκB activation, HeLa_hOx40_NFkB_Luc1, w/ hu FAP+ fibroblasts (human OX40 on cells [15]): 0.2 nM | EC50 of NFκB activation, HeLa_hOx40_NFkB_Luc1, w/o crosslinking (human OX40 on cells [15]): 1.9 nM | EC50 of suppression of TGFβ-induced FoxP3 (FoxP3 MFI) on CD4+ CD25+ Treg cells, FAP-coated beads (human OX40 on cells [16]): 0.11 nM | EC50 (human OX40 on cells [11]): 1.64 nM | binding activity [%] after 2 weeks at pH 6.0/40°C [12]: 99% | binding activity [%] after 2 weeks at pH 7.4/37°C [12]: 95% | binding activity [%] after 2 weeks at pH 6.0/40°C (biotinylated human OX40): 100% | binding activity [%] after 2 weeks at pH 7.4/37°C (biotinylated human OX40): 99% | EC50 of increased CEACAM5 TCB mediated cytokine secretion of human PBMC with FAP+ fibroblasts (human OX40 on cells [17]): 0.144 nM | EC50 of CD25 upregulation on CD4+ T cells, suboptimal TCR stimulation of human PBMC with FAP+ fibroblasts (human OX40 on cells [18]): 0.001 nM | EC50 [13]: 1.22 nM
